Laboratory results: article PMC9482650, “Quantitative fragmentomics allow affinity mapping of interactomes” (Nature Communications, 2022)

T1: ARHGEF11, O15085
T1 sequence (O15085 42-136, limits assumed, looked up): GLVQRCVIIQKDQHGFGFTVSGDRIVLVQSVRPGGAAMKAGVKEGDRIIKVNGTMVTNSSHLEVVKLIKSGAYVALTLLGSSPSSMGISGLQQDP

T2: DLG3_3, Q92796
T2 sequence (Q92796 374-475, limits assumed, looked up): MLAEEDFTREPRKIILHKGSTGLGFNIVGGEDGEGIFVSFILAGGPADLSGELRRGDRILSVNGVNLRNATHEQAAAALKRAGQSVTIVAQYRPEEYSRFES

T3: DVL3, Q92997
T3 sequence (Q92997 244-331, limits assumed, looked up): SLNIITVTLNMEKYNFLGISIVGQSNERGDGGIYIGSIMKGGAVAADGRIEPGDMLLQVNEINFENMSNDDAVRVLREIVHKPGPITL

T4: GRIP1_4, Q9Y3R0
T4 sequence (Q9Y3R0 467-571, limits assumed, looked up): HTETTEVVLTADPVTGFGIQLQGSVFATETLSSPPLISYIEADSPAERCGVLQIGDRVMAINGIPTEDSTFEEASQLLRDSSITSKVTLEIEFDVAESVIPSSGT

T5: GRIP1_5, Q9Y3R0
T5 sequence (Q9Y3R0 568-668, limits assumed, looked up): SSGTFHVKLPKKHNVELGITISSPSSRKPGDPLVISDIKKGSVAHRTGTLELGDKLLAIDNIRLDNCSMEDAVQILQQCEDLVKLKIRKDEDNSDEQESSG

T6: LIN7B, Q9HAP6
T6 sequence (Q9HAP6 88-185, limits assumed, looked up): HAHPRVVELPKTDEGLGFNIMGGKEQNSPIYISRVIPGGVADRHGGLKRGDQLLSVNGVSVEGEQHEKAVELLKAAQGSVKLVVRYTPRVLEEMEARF

T7: LNX2_2, Q8N448
T7 sequence (Q8N448 334-432, limits assumed, looked up): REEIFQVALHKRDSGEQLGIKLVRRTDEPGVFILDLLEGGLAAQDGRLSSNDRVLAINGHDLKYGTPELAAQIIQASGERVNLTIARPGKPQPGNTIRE

T8: LNX2_3, Q8N448
T8 sequence (Q8N448 463-564, limits assumed, looked up): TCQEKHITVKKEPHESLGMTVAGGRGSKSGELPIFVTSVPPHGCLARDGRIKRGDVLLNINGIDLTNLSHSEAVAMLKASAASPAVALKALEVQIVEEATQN

T9: MPP2, Q14168
T9 sequence (Q14168 180-250, limits assumed, looked up): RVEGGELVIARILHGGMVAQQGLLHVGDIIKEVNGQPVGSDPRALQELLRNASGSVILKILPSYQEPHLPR

T10: NHERF3_1, Q5T2W1
T10 sequence (Q5T2W1 4-100, limits assumed, looked up): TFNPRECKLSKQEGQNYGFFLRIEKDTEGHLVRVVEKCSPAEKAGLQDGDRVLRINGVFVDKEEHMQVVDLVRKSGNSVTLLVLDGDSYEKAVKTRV

T11: RADIL, Q96JH8
T11 sequence (Q96JH8 971-1071, limits assumed, looked up): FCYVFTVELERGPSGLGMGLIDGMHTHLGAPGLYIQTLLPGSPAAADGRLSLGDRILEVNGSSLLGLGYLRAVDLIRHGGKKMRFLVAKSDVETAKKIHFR

T12: TIAM2, Q8IVF5
T12 sequence (Q8IVF5 885-986, limits assumed, looked up): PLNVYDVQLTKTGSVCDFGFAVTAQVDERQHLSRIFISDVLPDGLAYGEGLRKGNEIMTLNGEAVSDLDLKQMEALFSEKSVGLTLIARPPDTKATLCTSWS


What follows are binders tested against T1, ARHGEF11, O15085 (assay: holdup assay). Conditions: plain residues with an end cap or a label only (N-terminal biotin on a linker: ado-ado).
Set-up: key: below the threshold = too weak to quantify, mostly under pKd 3.1 to 4

Binder	pKd
MQILSKPEFI [NPSR1, Q6W5P4]	below the threshold
PLPPEEESWV [GAS2L2, Q8NHY3]	4.46

The binders below were run against DLG1_2, Q12959 (assay: holdup assay). Conditions: plain residues with an end cap or a label only (N-terminal biotin on a linker: ado-ado).
DLG1_2, Q12959, sequence (Q12959 314-412): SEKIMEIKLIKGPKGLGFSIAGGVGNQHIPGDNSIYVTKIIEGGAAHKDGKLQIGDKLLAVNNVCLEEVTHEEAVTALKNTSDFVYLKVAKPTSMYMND
Set-up: key: below the threshold = too weak to quantify, mostly under pKd 3.1 to 4

Binder	pKd
MQILSKPEFI [NPSR1, Q6W5P4]	below the threshold
PLPPEEESWV [GAS2L2, Q8NHY3]	4.67

What follows are binders tested against T2, DLG3_3, Q92796 (assay: holdup assay). Conditions: plain residues with an end cap or a label only (N-terminal biotin on a linker: ado-ado).
Set-up: key: below the threshold = too weak to quantify, mostly under pKd 3.1 to 4

Binder	pKd
MQILSKPEFI [NPSR1, Q6W5P4]	below the threshold
PLPPEEESWV [GAS2L2, Q8NHY3]	below the threshold

What follows are binders tested against T3, DVL3, Q92997 (assay: holdup assay). Conditions: plain residues with an end cap or a label only (N-terminal biotin on a linker: ado-ado).
Set-up: key: below the threshold = too weak to quantify, mostly under pKd 3.1 to 4

Binder	pKd
MQILSKPEFI [NPSR1, Q6W5P4]	3.61
PLPPEEESWV [GAS2L2, Q8NHY3]	4.01

Each binder was assayed against FRMPD4, Q14CM0 (assay: holdup assay). Conditions: plain residues with an end cap or a label only (N-terminal biotin on a linker: ado-ado).
FRMPD4, Q14CM0, sequence (Q14CM0 67-160): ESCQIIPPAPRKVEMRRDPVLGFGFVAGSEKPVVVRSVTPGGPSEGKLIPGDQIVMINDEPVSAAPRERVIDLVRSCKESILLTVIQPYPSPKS
Set-up: key: below the threshold = too weak to quantify, mostly under pKd 3.1 to 4

Binder	pKd
MQILSKPEFI [NPSR1, Q6W5P4]	below the threshold
PLPPEEESWV [GAS2L2, Q8NHY3]	3.55

The binders below were run against GIPC2, Q8TF65 (assay: holdup assay). Conditions: plain residues with an end cap or a label only (N-terminal biotin on a linker: ado-ado).
GIPC2, Q8TF65, sequence (Q8TF65 112-203): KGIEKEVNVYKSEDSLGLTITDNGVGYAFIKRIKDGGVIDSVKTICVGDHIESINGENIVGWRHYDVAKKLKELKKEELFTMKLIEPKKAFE
Set-up: key: below the threshold = too weak to quantify, mostly under pKd 3.1 to 4

Binder	pKd
MQILSKPEFI [NPSR1, Q6W5P4]	below the threshold
PLPPEEESWV [GAS2L2, Q8NHY3]	4.2

Each binder was assayed against T4, GRIP1_4, Q9Y3R0 (assay: holdup assay). Conditions: plain residues with an end cap or a label only (N-terminal biotin on a linker: ado-ado).
Set-up: key: below the threshold = too weak to quantify, mostly under pKd 3.1 to 4

Binder	pKd
MQILSKPEFI [NPSR1, Q6W5P4]	below the threshold
PLPPEEESWV [GAS2L2, Q8NHY3]	below the threshold

The binders below were run against T5, GRIP1_5, Q9Y3R0 (assay: holdup assay). Conditions: plain residues with an end cap or a label only (N-terminal biotin on a linker: ado-ado).
Set-up: key: below the threshold = too weak to quantify, mostly under pKd 3.1 to 4

Binder	pKd
MQILSKPEFI [NPSR1, Q6W5P4]	below the threshold
PLPPEEESWV [GAS2L2, Q8NHY3]	below the threshold

What follows are binders tested against GRIP2_5, Q9C0E4 (assay: holdup assay). Conditions: plain residues with an end cap or a label only (N-terminal biotin on a linker: ado-ado).
GRIP2_5, Q9C0E4, sequence (Q9C0E4 544-642): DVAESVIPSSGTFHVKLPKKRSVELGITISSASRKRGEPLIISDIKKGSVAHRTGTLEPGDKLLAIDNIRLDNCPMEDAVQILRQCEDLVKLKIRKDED
Set-up: key: below the threshold = too weak to quantify, mostly under pKd 3.1 to 4

Binder	pKd
MQILSKPEFI [NPSR1, Q6W5P4]	below the threshold
PLPPEEESWV [GAS2L2, Q8NHY3]	below the threshold

These binders were tested against IL16_3, Q14005 (assay: holdup assay). Conditions: plain residues with an end cap or a label only (N-terminal biotin on a linker: ado-ado).
IL16_3, Q14005, sequence (Q14005 1107-1207): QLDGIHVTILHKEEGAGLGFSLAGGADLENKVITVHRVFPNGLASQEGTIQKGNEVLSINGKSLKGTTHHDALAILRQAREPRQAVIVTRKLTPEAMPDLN
Set-up: key: below the threshold = too weak to quantify, mostly under pKd 3.1 to 4

Binder	pKd
MQILSKPEFI [NPSR1, Q6W5P4]	below the threshold
PLPPEEESWV [GAS2L2, Q8NHY3]	below the threshold

What follows are binders tested against IL16_4, Q14005 (assay: holdup assay). Conditions: plain residues with an end cap or a label only (N-terminal biotin on a linker: ado-ado).
IL16_4, Q14005, sequence (Q14005 1229-1329): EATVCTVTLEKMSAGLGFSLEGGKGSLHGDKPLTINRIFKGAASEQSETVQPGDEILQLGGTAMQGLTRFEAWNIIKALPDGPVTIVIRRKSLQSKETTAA
Set-up: key: below the threshold = too weak to quantify, mostly under pKd 3.1 to 4

Binder	pKd
MQILSKPEFI [NPSR1, Q6W5P4]	3.7
PLPPEEESWV [GAS2L2, Q8NHY3]	below the threshold

Each binder was assayed against Inadl_2, Q8NI35 (assay: holdup assay). Conditions: plain residues with an end cap or a label only (N-terminal biotin on a linker: ado-ado).
Inadl_2, Q8NI35, sequence (Q8NI35 238-335): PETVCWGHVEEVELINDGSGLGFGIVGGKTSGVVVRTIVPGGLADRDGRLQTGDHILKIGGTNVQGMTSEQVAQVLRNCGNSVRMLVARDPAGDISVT
Set-up: key: below the threshold = too weak to quantify, mostly under pKd 3.1 to 4

Binder	pKd
MQILSKPEFI [NPSR1, Q6W5P4]	below the threshold
PLPPEEESWV [GAS2L2, Q8NHY3]	4.17

What follows are binders tested against LAP2, Q96RT1 (assay: holdup assay). Conditions: plain residues with an end cap or a label only (N-terminal biotin on a linker: ado-ado).
LAP2, Q96RT1, sequence (Q96RT1 other isoform, or with tags, fused parts or gaps): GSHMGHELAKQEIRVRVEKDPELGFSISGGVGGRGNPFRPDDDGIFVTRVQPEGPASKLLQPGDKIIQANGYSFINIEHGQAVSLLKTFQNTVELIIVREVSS
Set-up: key: below the threshold = too weak to quantify, mostly under pKd 3.1 to 4

Binder	pKd
MQILSKPEFI [NPSR1, Q6W5P4]	below the threshold
PLPPEEESWV [GAS2L2, Q8NHY3]	5.73

What follows are binders tested against T6, LIN7B, Q9HAP6 (assay: holdup assay). Conditions: plain residues with an end cap or a label only (N-terminal biotin on a linker: ado-ado).
Set-up: key: below the threshold = too weak to quantify, mostly under pKd 3.1 to 4

Binder	pKd
MQILSKPEFI [NPSR1, Q6W5P4]	3.81
PLPPEEESWV [GAS2L2, Q8NHY3]	3.96

These binders were tested against T7, LNX2_2, Q8N448 (assay: holdup assay). Conditions: plain residues with an end cap or a label only (N-terminal biotin on a linker: ado-ado).
Set-up: key: below the threshold = too weak to quantify, mostly under pKd 3.1 to 4

Binder	pKd
MQILSKPEFI [NPSR1, Q6W5P4]	below the threshold
PLPPEEESWV [GAS2L2, Q8NHY3]	5.07

The binders below were run against T8, LNX2_3, Q8N448 (assay: holdup assay). Conditions: plain residues with an end cap or a label only (N-terminal biotin on a linker: ado-ado).
Set-up: key: below the threshold = too weak to quantify, mostly under pKd 3.1 to 4

Binder	pKd
MQILSKPEFI [NPSR1, Q6W5P4]	below the threshold
PLPPEEESWV [GAS2L2, Q8NHY3]	below the threshold

The binders below were run against MAGI2_2, Q86UL8 (assay: holdup assay). Conditions: plain residues with an end cap or a label only (N-terminal biotin on a linker: ado-ado).
MAGI2_2, Q86UL8, sequence (Q86UL8 410-522): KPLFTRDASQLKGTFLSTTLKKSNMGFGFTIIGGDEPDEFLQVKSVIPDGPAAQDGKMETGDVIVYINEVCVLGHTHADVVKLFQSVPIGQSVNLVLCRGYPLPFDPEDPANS
Set-up: key: below the threshold = too weak to quantify, mostly under pKd 3.1 to 4

Binder	pKd
MQILSKPEFI [NPSR1, Q6W5P4]	below the threshold
PLPPEEESWV [GAS2L2, Q8NHY3]	below the threshold

The binders below were run against MAST2, Q6P0Q8 (assay: holdup assay). Conditions: plain residues with an end cap or a label only (N-terminal biotin on a linker: ado-ado).
MAST2, Q6P0Q8, sequence (Q6P0Q8 1099-1202): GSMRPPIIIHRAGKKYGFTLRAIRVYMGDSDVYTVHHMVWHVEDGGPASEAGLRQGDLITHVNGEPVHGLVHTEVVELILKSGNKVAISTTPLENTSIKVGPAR
Set-up: key: below the threshold = too weak to quantify, mostly under pKd 3.1 to 4

Binder	pKd
MQILSKPEFI [NPSR1, Q6W5P4]	below the threshold
PLPPEEESWV [GAS2L2, Q8NHY3]	5.12

The binders below were run against T9, MPP2, Q14168 (assay: holdup assay). Conditions: plain residues with an end cap or a label only (N-terminal biotin on a linker: ado-ado).
Set-up: key: below the threshold = too weak to quantify, mostly under pKd 3.1 to 4

Binder	pKd
MQILSKPEFI [NPSR1, Q6W5P4]	below the threshold
PLPPEEESWV [GAS2L2, Q8NHY3]	below the threshold

What follows are binders tested against T10, NHERF3_1, Q5T2W1 (assay: holdup assay). Conditions: plain residues with an end cap or a label only (N-terminal biotin on a linker: ado-ado).
Set-up: key: below the threshold = too weak to quantify, mostly under pKd 3.1 to 4

Binder	pKd
MQILSKPEFI [NPSR1, Q6W5P4]	below the threshold
PLPPEEESWV [GAS2L2, Q8NHY3]	4.86

Each binder was assayed against NOS1, P29475 (assay: holdup assay). Conditions: plain residues with an end cap or a label only (N-terminal biotin on a linker: ado-ado).
NOS1, P29475, sequence (P29475 9-101): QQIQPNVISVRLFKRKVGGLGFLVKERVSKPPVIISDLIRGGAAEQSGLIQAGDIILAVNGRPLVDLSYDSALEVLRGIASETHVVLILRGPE
Set-up: key: below the threshold = too weak to quantify, mostly under pKd 3.1 to 4

Binder	pKd
MQILSKPEFI [NPSR1, Q6W5P4]	3.84
PLPPEEESWV [GAS2L2, Q8NHY3]	4.06

The binders below were run against PARD3_3, Q8TEW0 (assay: holdup assay). Conditions: plain residues with an end cap or a label only (N-terminal biotin on a linker: ado-ado).
PARD3_3, Q8TEW0, sequence (Q8TEW0 582-685): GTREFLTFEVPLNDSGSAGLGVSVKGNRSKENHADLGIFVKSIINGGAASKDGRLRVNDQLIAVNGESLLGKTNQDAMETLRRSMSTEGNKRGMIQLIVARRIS
Set-up: key: below the threshold = too weak to quantify, mostly under pKd 3.1 to 4

Binder	pKd
MQILSKPEFI [NPSR1, Q6W5P4]	3.98
PLPPEEESWV [GAS2L2, Q8NHY3]	4.75

Each binder was assayed against T11, RADIL, Q96JH8 (assay: holdup assay). Conditions: plain residues with an end cap or a label only (N-terminal biotin on a linker: ado-ado).
Set-up: key: below the threshold = too weak to quantify, mostly under pKd 3.1 to 4

Binder	pKd
MQILSKPEFI [NPSR1, Q6W5P4]	4.42
PLPPEEESWV [GAS2L2, Q8NHY3]	4.55

These binders were tested against SNX27, Q96L92 (assay: holdup assay). Conditions: plain residues with an end cap or a label only (N-terminal biotin on a linker: ado-ado).
Set-up: key: below the threshold = too weak to quantify, mostly under pKd 3.1 to 4

Binder	pKd
MQILSKPEFI [NPSR1, Q6W5P4]	below the threshold
PLPPEEESWV [GAS2L2, Q8NHY3]	5.58

The binders below were run against T12, TIAM2, Q8IVF5 (assay: holdup assay). Conditions: plain residues with an end cap or a label only (N-terminal biotin on a linker: ado-ado).
Set-up: key: below the threshold = too weak to quantify, mostly under pKd 3.1 to 4

Binder	pKd
MQILSKPEFI [NPSR1, Q6W5P4]	4.05
PLPPEEESWV [GAS2L2, Q8NHY3]	4.17

These binders were tested against TJP2_1, Q9UDY2 (assay: holdup assay). Conditions: plain residues with an end cap or a label only (N-terminal biotin on a linker: ado-ado).
TJP2_1, Q9UDY2, sequence (Q9UDY2 24-128): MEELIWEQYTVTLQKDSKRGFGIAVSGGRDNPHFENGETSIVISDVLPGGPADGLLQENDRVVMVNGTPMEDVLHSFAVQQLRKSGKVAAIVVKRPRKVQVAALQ
Set-up: key: below the threshold = too weak to quantify, mostly under pKd 3.1 to 4

Binder	pKd
MQILSKPEFI [NPSR1, Q6W5P4]	below the threshold
PLPPEEESWV [GAS2L2, Q8NHY3]	4.4
